# Assay results as given in paper PMC11922745, “Reconstitution of SPO11-dependent double-strand break formation” (Nature, 2024).
# Residue numbers refer to the chain shown, from its start.
# T1: Flag-tagged mouse SPO11 (β splicing isoform), wild type (mouse, UniProt Q9WTK8-1 1-396)
# T1 construct: mouse SPO11, β splicing isoform (includes exon 2), UniProt Q9WTK8-1, full-length optimized coding DNA; A TEV cleavage site lies between the Flag tag and SPO11; no cleavage is described; also called Flag–SPO11; mSPO11; not shown: Flag, N-terminal, kept
# T1 sequence (looked up): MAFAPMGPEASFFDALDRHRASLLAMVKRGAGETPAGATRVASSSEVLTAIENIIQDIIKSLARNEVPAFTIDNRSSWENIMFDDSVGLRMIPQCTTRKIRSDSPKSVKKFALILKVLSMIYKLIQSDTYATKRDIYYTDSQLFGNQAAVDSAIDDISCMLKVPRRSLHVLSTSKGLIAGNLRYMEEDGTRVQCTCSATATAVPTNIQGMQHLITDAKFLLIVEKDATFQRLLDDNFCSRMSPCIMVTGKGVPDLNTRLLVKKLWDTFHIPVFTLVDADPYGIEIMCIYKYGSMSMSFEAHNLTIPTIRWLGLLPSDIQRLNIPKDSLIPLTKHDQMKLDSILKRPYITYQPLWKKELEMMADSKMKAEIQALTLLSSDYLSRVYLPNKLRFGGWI
# T2: SPO11 E224A;TOP6BL (Mus musculus;Mus musculus, UniProt Q9WTK8;J3QMY9 1-396;1-579, E224A|)
# T2 sequence 1: T1 sequence (looked up) with E224A
# T2 sequence 2: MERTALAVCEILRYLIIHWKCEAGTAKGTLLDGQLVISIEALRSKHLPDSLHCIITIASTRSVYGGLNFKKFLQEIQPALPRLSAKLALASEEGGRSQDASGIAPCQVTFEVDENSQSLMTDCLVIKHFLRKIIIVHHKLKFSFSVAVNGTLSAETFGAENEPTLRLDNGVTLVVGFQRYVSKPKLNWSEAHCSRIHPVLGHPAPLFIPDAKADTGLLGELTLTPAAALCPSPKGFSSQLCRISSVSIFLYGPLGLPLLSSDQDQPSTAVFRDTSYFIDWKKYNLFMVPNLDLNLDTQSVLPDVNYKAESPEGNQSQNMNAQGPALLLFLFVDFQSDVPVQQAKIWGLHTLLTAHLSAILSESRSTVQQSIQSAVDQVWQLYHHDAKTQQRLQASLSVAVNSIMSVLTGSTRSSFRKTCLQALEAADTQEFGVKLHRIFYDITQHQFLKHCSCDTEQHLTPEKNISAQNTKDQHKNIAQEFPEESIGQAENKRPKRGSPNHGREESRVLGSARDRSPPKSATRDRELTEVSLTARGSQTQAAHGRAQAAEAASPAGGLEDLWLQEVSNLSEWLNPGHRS
# T3: SPO11 (beta isoform);TOP6BL (Mus musculus;Mus musculus, UniProt Q9WTK8;J3QMY9 1-396;1-579, |)
# T3 sequence 1: T1 sequence (looked up)
# T3 sequence 2: T2 sequence 2
# T4: SPO11 Y138F;TOP6BL (Mus musculus;Mus musculus, UniProt Q9WTK8;J3QMY9 1-396;1-579, Y138F|)
# T4 sequence 1: T1 sequence (looked up) with Y138F
# T4 sequence 2: T2 sequence 2
# B1: mouse TOP6BL, untagged (natural protein, UniProt J3QMY9-1 1-579, looked up)
# chain: T2 sequence 2
# notes: mouse TOP6BL, UniProt J3QMY9-1, untagged, optimized coding DNA
# B2: 26 bp double-overhang duplex (dsDNA)
# DNA 1: TAGCAATGTAATCGTCTATGACGTTAGC
# DNA 2: TAGCTAACGTCATAGACGATTACATTGC
# B3: 25 bp double-overhang duplex (dsDNA)
# DNA 1: TAGCAATGTAATCGTCTATGACGTTAG
# DNA 2: TACTAACGTCATAGACGATTACATTGC
# B4: 24 bp double-overhang duplex (dsDNA)
# DNA 1: TAGCAATGTAATCGTCTATGACGTTA
# DNA 2: TATAACGTCATAGACGATTACATTGC
# B5: 23 bp double-overhang duplex (dsDNA)
# DNA 1: TAGCAATGTAATCGTCTATGACGTT
# DNA 2: TAAACGTCATAGACGATTACATTGC
# B6: 22 bp double-overhang duplex (dsDNA)
# DNA 1: TAGCAATGTAATCGTCTATGACGT
# DNA 2: TAACGTCATAGACGATTACATTGC
# B7: oligonucleotide cleavage substrate (44 bp, A4 loops at both ends) (structured_DNA)
# DNA: CGGTTCAAAAGAACCGGAGCTGAATGAAGCCATACCAAACGACGAGCGTGACACAAAAGTGTCACGCTCGTCGTTTGGTATGGCTTCATTCAGCTC
# modifications: covalently closed circle (ligated)
# B8: 28 bp double-overhang duplex (dsDNA)
# DNA 1: TAGCAATGTAATCGTCTATGACGTTAGCGC
# DNA 2: TAGCGCTAACGTCATAGACGATTACATTGC
# B9: 27 bp double-overhang duplex (dsDNA)
# DNA 1: TAGCAATGTAATCGTCTATGACGTTAGCG
# DNA 2: TACGCTAACGTCATAGACGATTACATTGC
# How the values were obtained:
# [1] = target: T1, Flag-tagged mouse SPO11 (β splicing …); assay: SEC; proteins co-expressed in FreeStyle 293-F cells; lysate (25 mM HEPES-NaOH pH 7.5, 500 mM NaCl) on anti-Flag M2 affinity gel, eluted with Flag peptide, then Superdex 200 Increase 10/300 GL; fractions on Coomassie-stained SDS-PAGE; details: partners not purified
# [2] = target: T2, SPO11 E224A;TOP6BL; assay: EMSA; 5 mM Mg2+; DNA binding retained; Kd value only in figure; Hairpin EMSA: 25 mM Tris-HCl pH 7.5, 100 mM NaCl, 5 mM MgCl2, 7.5% glycerol, 2 mM DTT, 1 mg/ml BSA, 0.1 nM DNA, 30 min 30 C; cleavage-oligo EMSA: 25 mM HEPES-NaOH pH 7.5, 50 mM NaCl, 5 mM MgCl2, 7.5% glycerol, 1 mg/ml BSA, 2 mM DTT, 4 C; details: protein: recombinant;recombinant, tags: N-terminal Flag-TEV;untagged, copies: 1;1, label: 5'-32P, 5' overhang 2 nt
# [3] = target: T3, SPO11 (beta isoform);TOP6BL; assay: EMSA; 5 mM Mg2+; apparent Kd, end binding; second shift at >=25 nM; Hairpin EMSA: 25 mM Tris-HCl pH 7.5, 100 mM NaCl, 5 mM MgCl2, 7.5% glycerol, 2 mM DTT, 1 mg/ml BSA, 0.1 nM DNA, 30 min 30 C; cleavage-oligo EMSA: 25 mM HEPES-NaOH pH 7.5, 50 mM NaCl, 5 mM MgCl2, 7.5% glycerol, 1 mg/ml BSA, 2 mM DTT, 4 C; details: protein: recombinant;recombinant, tags: N-terminal Flag-TEV;untagged, copies: 1;1, label: 5'-32P, 5' overhang 2 nt
# [4] = target: T4, SPO11 Y138F;TOP6BL; assay: EMSA; 5 mM Mg2+; apparent Kd; Hairpin EMSA: 25 mM Tris-HCl pH 7.5, 100 mM NaCl, 5 mM MgCl2, 7.5% glycerol, 2 mM DTT, 1 mg/ml BSA, 0.1 nM DNA, 30 min 30 C; cleavage-oligo EMSA: 25 mM HEPES-NaOH pH 7.5, 50 mM NaCl, 5 mM MgCl2, 7.5% glycerol, 1 mg/ml BSA, 2 mM DTT, 4 C; details: protein: recombinant;recombinant, tags: N-terminal Flag-TEV;untagged, copies: 1;1, label: 5'-32P, 5' overhang 2 nt
# [5] = target: T3, SPO11 (beta isoform);TOP6BL; assay: EMSA; double-end binding disfavoured at 0.8 nM, restored at higher protein; Hairpin EMSA: 25 mM Tris-HCl pH 7.5, 100 mM NaCl, 5 mM MgCl2, 7.5% glycerol, 2 mM DTT, 1 mg/ml BSA, 0.1 nM DNA, 30 min 30 C; cleavage-oligo EMSA: 25 mM HEPES-NaOH pH 7.5, 50 mM NaCl, 5 mM MgCl2, 7.5% glycerol, 1 mg/ml BSA, 2 mM DTT, 4 C; details: protein: recombinant;recombinant; tags: N-terminal Flag-TEV;untagged; copies: 1;1; label: 5'-32P; 5' overhang 2 nt (TA) at both ends
# [6] = target: T3, SPO11 (beta isoform);TOP6BL; assay: EMSA; double-end binding possible at 0.8 nM; Hairpin EMSA: 25 mM Tris-HCl pH 7.5, 100 mM NaCl, 5 mM MgCl2, 7.5% glycerol, 2 mM DTT, 1 mg/ml BSA, 0.1 nM DNA, 30 min 30 C; cleavage-oligo EMSA: 25 mM HEPES-NaOH pH 7.5, 50 mM NaCl, 5 mM MgCl2, 7.5% glycerol, 1 mg/ml BSA, 2 mM DTT, 4 C; details: protein: recombinant;recombinant; tags: N-terminal Flag-TEV;untagged; copies: 1;1; label: 5'-32P; 5' overhang 2 nt (TA) at both ends
# [7] = target: T3, SPO11 (beta isoform);TOP6BL; assay: EMSA; 5 mM Mg2+, 50 mM NaCl, 4 C; apparent Kd for first monomer; doubly bound complexes formed; Hairpin EMSA: 25 mM Tris-HCl pH 7.5, 100 mM NaCl, 5 mM MgCl2, 7.5% glycerol, 2 mM DTT, 1 mg/ml BSA, 0.1 nM DNA, 30 min 30 C; cleavage-oligo EMSA: 25 mM HEPES-NaOH pH 7.5, 50 mM NaCl, 5 mM MgCl2, 7.5% glycerol, 1 mg/ml BSA, 2 mM DTT, 4 C; details: protein: recombinant;recombinant; tags: N-terminal Flag-TEV;untagged; copies: 1;1; label: 32P (5' labelled, then ligated); closed dumbbell, 44 bp duplex with two A4 hairpin loops
# [8] = target: T3, SPO11 (beta isoform);TOP6BL; assay: EMSA; double-end binding; Hairpin EMSA: 25 mM Tris-HCl pH 7.5, 100 mM NaCl, 5 mM MgCl2, 7.5% glycerol, 2 mM DTT, 1 mg/ml BSA, 0.1 nM DNA, 30 min 30 C; cleavage-oligo EMSA: 25 mM HEPES-NaOH pH 7.5, 50 mM NaCl, 5 mM MgCl2, 7.5% glycerol, 1 mg/ml BSA, 2 mM DTT, 4 C; details: protein: recombinant;recombinant; tags: N-terminal Flag-TEV;untagged; copies: 1;1; label: 5'-32P; 5' overhang 2 nt (TA) at both ends
binder,measurement,setting,value
B1,stoichiometry N,[1],1
"TAGCAATGTAATCGTCTATGACGTTAACGTCATAGACGATTACATTGC (structured_DNA) [25 bp hairpin, 2-nt 5' overhang]",binding result,[2],binds
same,Kd,[3],0.59 ± 0.05 nM
same,Kd,[4],0.57 ± 0.03 nM
B2,binding result,[5],binds
B3,binding result,[5],binds
B4,binding result,[5],binds
B5,binding result,[6],binds
B6,binding result,[6],binds
B7,Kd,[7],1.8 nM
B8,binding result,[8],binds
B9,binding result,[5],binds
